This note sets out measurements from PMC12199698, “Reliable prediction of protein–protein binding affinity changes upon mutations with Pythia-PPI” (National Science Review, 2025).

Broadly, the Kd is the free concentration of one partner at which half of the binding sites on the other are occupied at equilibrium, for simple one-to-one binding.

The target of the test is T1, SARS-CoV-2 prototype receptor binding domain (SARS-CoV-2 prototype, GISAID …, UniProt P0DTC2).
T1 construct: also called SARS-CoV-2 PT RBD; RBD
Description: SPR; BIAcore 8K; antibody captured on a Protein A chip ([…]; running buffer PBST (PBS + 0.05% ([…]) Tween 20); […]; 1:1 (Langmuir) binding model; […]. The settings on record: both partners purified. In general terms: SPR reads the build-up and loss of mass on a sensor chip optically.

B1: CB6 antibody (wild type) (antibody, V domains shown)
VH: EVQLVESGGGLVQPGGSLRLSCAASGFTVSSNYMSWVRQAPGKGLEWVSVIYSGGSTFYADSVKGRFTISRDNSMNTLFLQMNSLRAEDTAVYYCARVLPMYGDYLDYWGQGTLVTVSS
VL: not shown
notes: heavy chain variable region of CB6; constant region of human IgG1; light chain variable part of CB6; Ig kappa chain (constant part) to which the light chain was fused; IgG1, kappa; also called WT
Turning to B1, the Kd was found to be 0.0146 µM.
